Experimental data reported in article PMC2778355 (Biochemistry, 2009).
Values belong to the molecule of their own block, whether it stands above or below them.

How the values were obtained:
His-ZapA (E. coli) [1] = target: His-ZapA (E. coli) (UniProt P0ADS2); assay: composition-gradient static light scattering
His-ZapA (E. coli) [2] = target: His-ZapA (E. coli) (UniProt P0ADS2); assay: AUC
[3] = target: Escherichia coli FtsZ (E. coli) (UniProt P0A9A6); assay: co-sedimentation
ZapA (Escherichia coli) = ZapA (Escherichia coli) (UniProt P0ADS2); conditions: cited from earlier work
[4] = target: the molecule itself; assay: negative-stain electron microscopy

Molecule: ZapA (from UniProt P0ADS2)
Kd (ZapA (Escherichia coli)): 0.32 µM

B1: Escherichia coli FtsZ (natural protein)
chain: MFEPMELTNDAVIKVIGVGGGGGNAVEHMVRERIEGVEFFAVNTDAQALRKTAVGQTIQIGSGITKGLGAGANPEVGRNAADEDRDALRAALEGADMVFIAAGMGGGTGTGAAPVVAEVAKDLGILTVAVVTKPFNFEGKKRMAFAEQGITELSKHVDSLITIPNDKLLKVLGRGISLLDAFGAANDVLKGAVQGIAELITRPGLMNVDFADVRTVMSEMGYAMMGSGVASGEDRAEEAAEMAISSPLLEDIDLSGARGVLVNITAGFDLRLDEFETVGNTIRAFASDNATVVIGTSLDPDMNDELRVTVVATGIGMDKRPEITLVTNKQVQQPVMDRYQQHGMAPLTQEQKPVAKVVNDNAPQTAKEPDYLDIPAFLRKQAD
binding result [4]: binds

Further lines, results first:

stoichiometry N (His-ZapA (E. coli) [1]): 4
stoichiometry N (His-ZapA (E. coli) [2]): 4
Molecule: His-ZapA (from UniProt P0ADS2 1-109) (natural protein)

stoichiometry N [3]: 1
Molecule: ZapA (His tag removed by enterokinase digestion of His-ZapA) (from UniProt P0ADS2 1-109) (natural protein)
